PMC5058626 (mAbs, 2016)
Like-named read-outs stand apart in the source and are kept apart here. Values belong to the molecule of their own block, whether it stands above or below them.

What was measured:
Test in all cases: SPR
[1] = biological target: CA645 gL4gH5 Fab (human) [IgG part: P01857]
[2] = biological target: CA645 gL4gH5 Fab (human) [IgG part: P01857]; remark: listed apart in the source
[3] = biological target: CA645 gL4gH5 Fab (human) [IgG part: P01857]; remark: listed apart in the source
[4] = biological target: CA645 gL4gH5 Fab (human) [IgG part: P01857]; remark: listed apart in the source
[5] = biological target: CA645 gL4gH5 Fab (human) [IgG part: P01857]; remark: listed apart in the source
[6] = biological target: CA645 gL4gH5 Fab (human) [IgG part: P01857]; remark: listed apart in the source
[7] = biological target: mouse serum albumin (Mus musculus, UniProt P07724)
[8] = biological target: T1, human serum albumin (Homo sapiens, UniProt P02768)
[9] = biological target: T1, human serum albumin; remark: listed apart in the source
[10] = biological target: human serum albumin (Homo sapiens, UniProt P02768); remark: listed apart in the source
[11] = biological target: T1, human serum albumin; remark: listed apart in the source
[12] = biological target: T1, human serum albumin; remark: listed apart in the source

mouse serum albumin, sequence (P07724 25-608): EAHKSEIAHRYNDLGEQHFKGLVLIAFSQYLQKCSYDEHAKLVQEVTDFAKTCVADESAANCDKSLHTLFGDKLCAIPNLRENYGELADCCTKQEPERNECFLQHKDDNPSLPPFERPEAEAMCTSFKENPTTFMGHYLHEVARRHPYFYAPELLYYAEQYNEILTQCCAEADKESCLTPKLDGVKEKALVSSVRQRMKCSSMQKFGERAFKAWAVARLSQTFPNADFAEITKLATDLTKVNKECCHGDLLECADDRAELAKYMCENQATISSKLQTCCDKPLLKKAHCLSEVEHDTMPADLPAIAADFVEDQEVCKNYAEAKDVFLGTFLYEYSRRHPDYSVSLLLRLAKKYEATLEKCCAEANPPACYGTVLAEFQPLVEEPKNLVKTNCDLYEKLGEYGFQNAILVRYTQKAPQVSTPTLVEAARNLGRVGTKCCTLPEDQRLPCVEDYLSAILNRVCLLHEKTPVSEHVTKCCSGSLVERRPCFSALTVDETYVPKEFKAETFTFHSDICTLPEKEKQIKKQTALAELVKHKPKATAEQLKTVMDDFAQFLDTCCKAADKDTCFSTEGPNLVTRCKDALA

B2: CA645 gL5gH5 Fab (Fab, V domains shown)
VH: EVQLLESGGGLVQPGGSLRLSCAVSGIDLSNYAINWVRQAPGKGLEWIGIIWASGTTFYATWAKGRFTISRDNSKNTVYLQMNSLRAEDTAVYYCARTVPGYSTAPYFDLWGQGTLVTVSS
VL: DIQMTQSPSSVSASVGDRVTITCQSSPSVASNFLSWYQQKPGKAPKLLIYEASKLTSGVPSRFSGSGSGTDFTLTISSLQPEDFATYYCGGGYSSISDTTFGGGTKVEIK
Kd [9]: 453 nM
koff [9]: 0.0571 s⁻¹
kon [9]: 126000 M⁻¹ s⁻¹

B3: CA645 gL19gH5 Fab (Fab, V domains shown)
VH: EVQLLESGGGLVQPGGSLRLSCAVSGIDLSNYAINWVRQAPGKGLEWIGIIWASGTTFYATWAKGRFTISRDNSKNTVYLQMNSLRAEDTAVYYCARTVPGYSTAPYFDLWGQGTLVTVSS
VL: DIQMTQSPSSVSASVGDRVTITCQSSPSVWDNFLSWYQQKPGKAPKLLIYEASKLTSGVPSRFSGSGSGTDFTLTISSLQPEDFATYYCGGGYSSISDTTFGGGTKVEIK
Kd [10]: 5 nM

B5: CA645 gL4gH37 Fab (Fab, V domains shown)
VH: EVQLLESGGGLVQPGGSLRLSCAVSGIDLSNYAINWVRQAPGKGLEWIGIIWASGTTEYATWAKGRFTISRDNSKNTVYLQMNSLRAEDTAVYYCARTVPGYSTAPYFDLWGQGTLVTVSS
VL: DIQMTQSPSSVSASVGDRVTITCQSSPSVWSNFLSWYQQKPGKAPKLLIYEASKLTSGVPSRFSGSGSGTDFTLTISSLQPEDFATYYCGGGYSSISDTTFGGGTKVEIK
Kd [9]: 955 nM
koff [9]: 0.0583 s⁻¹
kon [9]: 61000 M⁻¹ s⁻¹

B6: CA645 gL5gH47 Fab (Fab, V domains shown)
VH: EVQLLESGGGLVQPGGSLRLSCAVSGIDLSNYAINWVRQAPGKGLEWIGIIWASGTTFYATWAKGRFTISRDNSKNTVYLQMNSLRAEDTAVYYCARTVPGYSSAPYFDLWGQGTLVTVSS
VL: DIQMTQSPSSVSASVGDRVTITCQSSPSVASNFLSWYQQKPGKAPKLLIYEASKLTSGVPSRFSGSGSGTDFTLTISSLQPEDFATYYCGGGYSSISDTTFGGGTKVEIK
Kd [12]: 52000 nM

Continued, values first:

Kd [1]: 10.7 nM
Kd [2]: 12.5 nM
Kd [3]: 13.3 nM
Kd [4]: 4.6 nM
Kd [5]: 1.23 nM
Kd [6]: 1.8 nM
Molecule: human serum albumin (from UniProt P02768 25-609) (natural protein)

Kd [7]: 2.6 nM
Kd [8]: 0.31 nM
B1: CA645 recombinant rabbit Fab (Fab, V domains shown)
VH: QSLEESGGRLVTPGTPLTLTCTVSGIDLSNYAINWVRQAPGKGLEWIGIIWASGTTFYATWAKGRFTISRPSTTVDLEMTSLTTADTATYFCARTVPGYSTAPYFDLWGPGTLVTVSS
VL: AAVLTQTPSPVSAAVGGTVTINCQSSPSVWSNFLSWYQQKPGQPPKLLIYEASKLTSGVPSRFKGSGSGTQFTLTISDVQCGDAATYYCGGGYSSISDTTFGGGTKVVVK

binding result [11]: no binding
B4: CA645 gL5gH37 Fab (Fab, V domains shown)
VH: EVQLLESGGGLVQPGGSLRLSCAVSGIDLSNYAINWVRQAPGKGLEWIGIIWASGTTEYATWAKGRFTISRDNSKNTVYLQMNSLRAEDTAVYYCARTVPGYSTAPYFDLWGQGTLVTVSS
VL: DIQMTQSPSSVSASVGDRVTITCQSSPSVASNFLSWYQQKPGKAPKLLIYEASKLTSGVPSRFSGSGSGTDFTLTISSLQPEDFATYYCGGGYSSISDTTFGGGTKVEIK
